In the oligonucleotide strings, read from the 5' end, every base follows the letter of its sugar. An asterisk marks phosphorothioate; unmarked linkages are phosphodiester. Other units and linkages are bracketed, terminal groups are in braces. A string of capitals states the bases alone. r = 2'-OH (RNA); f = 2'-fluoro
What was measured:
[1] = system: A431 human epidermoid carcinoma; experiment: Flow cytometric binding and internalization assay, A431; format: cell-based; details: A431, malignant
Experimental: (§1) In illustrating a screening process for internalization, from clones selected for further analysis from the selection process, a flow cytometric-based assay for binding and/or internalization was utilized. Typically, the assay was performed by incubating 200 nM of each clone with 5×10^5 target cells in 100 ul PBS containing 0.5% bovine serum albumin (BSA) in a 13 mm tube for 2 hours @ 37° C. A first portion of the cells was then treated with RNAse to remove any of the clone remaining bound to the surface of the cells, so as to allow detection and quantitation of internalized clone (i.e., measuring internalization). In parallel, a second portion of the cells was treated with PBS containing 0.5% BSA (lacking added RNase activity to enzymatically cleave […]), so as to allow detection and quantitation of clone remaining bound to the cell surface, as well as internalized clone (i.e., measuring binding and internalization). […] Additionally, fluorescence of unstained cells was measured, as a control, to quantitate any background fluorescent properties of the cells themselves as encountered in analyses by flow cytometry (“Unstained”), as opposed to fluorescent signal mediated by the RNA molecules further modified to include Alexa 647. […] The units of fluorescence in Table 5 represent mean fluorescence (“Mean”). […]

[2] = system: human prostate cancer cell line PC-3; experiment: Flow cytometric-based screening assay for internalization in PC-3 cells; format: cell-based
Experimental: In illustrating a screening process for internalization, from clones selected for further analysis from the selection process, a flow cytometric-based assay for binding and/or internalization was utilized. Typically, the assay was performed by incubating 200 nM of each clone with 5×10^5 target cells in 100 ul PBS containing 0.5% bovine serum albumin (BSA) in a 13 mm tube for 2 hours @ 37° C. A first portion of the cells was then treated with RNAse to remove any of the clone remaining bound to the surface of the cells, so as to allow detection and quantitation of internalized clone (i.e., measuring internalization). In parallel, a second portion of the cells was treated with PBS containing 0.5% BSA (lacking added RNase activity to enzymatically cleave […]), so as to allow detection and quantitation of clone remaining bound to the cell surface, as well as internalized clone (i.e., measuring binding and internalization). Following further washes with phosphate-buffered saline, the cells were fixed in 1% formaldehyde and then subjected to analysis on a flow cytometer using commercially available analysis software. In performing analyses by flow cytometry, several assay controls were used. As an assay control representing either no or background (e.g., non-specific) internalization, an RNA molecule resulting from a selection process for binding a molecule not detectably expressed on target cells was used. The assay control RNA molecule was further modified with Alexa 647, and then used for further characterization of clones from the selection process described herein. For ease of description and reference for this Example, this assay control RNA molecule is referred to herein as Negative Control 1 (see, e.g., Table 5). As an additional assay control that represents either no or background internalization, used was an RNA molecule from the starting library which was chosen from the library prior to beginning a selection method described herein, and that was further modified with Alexa 647. This assay control RNA molecule is referred to herein as Negative Control 2 (see, e.g., Tables 5, 7, and 8). Additionally, fluorescence of unstained cells was measured, as a control, to quantitate any background fluorescent properties of the cells themselves as encountered in analyses by flow cytometry (“Unstained”), as opposed to fluorescent signal mediated by the RNA molecules further modified to include Alexa 647. Shown in Table 5 are the results of analyses by flow cytometry in which measured and quantitated was the ability of clones, selected on the basis of sequence convergence, to internalize into target cells represented by human prostate cancer cell line PC-3. The units of fluorescence in Table 5 represent mean fluorescence (“Mean”). The fold increase (determined by dividing the mean fluorescence of a clone by the mean fluorescence of unstained cells) is an indicator of the ability of a clone, or a clone which has been further modified to include an effector moiety, to internalize into the target cells (Table 5; “Fold Increase”).
The truncations, illustrated in Table 6, were each further modified with a detectable moiety, Alexa 647, and analyzed by a flow cytometric-based screening assay for internalization using the methods outlined in Example 2, to determine minimal sequences that maintain the full ability to internalize into human prostate cancer cells. Shown in Table 7 are the results of analyses by flow cytometry in which measured and quantitated was the ability of each truncation to internalize into target cells represented by human prostate cancer cell line PC-3. The units of fluorescence in Table 7 represent mean fluorescence intensity (“Mean”). […]

[3] = system: A549 human lung adenocarcinoma; experiment: Flow cytometric binding and internalization assay, A549; format: cell-based; details: A549, malignant
Experimental: as §1

[4] = system: DU145 human prostate cancer, metastatic; experiment: Flow cytometric binding and internalization assay, DU145; format: cell-based; details: DU145, malignant
Experimental: as §1

[5] = system: T47D human ductal breast epithelial tumor cell line; experiment: Flow cytometric binding and internalization assay, T47D; format: cell-based; details: malignant
Experimental: as §1

[6] = system: MCF7 human breast adenocarcinoma; experiment: Flow cytometric binding and internalization assay, MCF7; format: cell-based; details: MCF7, malignant
Experimental: as §1

[7] = system: HCC1143 human, triple negative, breast carcinoma; experiment: Flow cytometric binding and internalization assay, HCC1143; format: cell-based; details: HCC1143, malignant
Experimental: as §1

[8] = system: SKBR3 human breast adenocarcinoma; experiment: Flow cytometric binding and internalization assay, SKBR3; format: cell-based; details: SKBR3, malignant
Experimental: as §1

[9] = system: PBMC (unstim) human, unstimulated peripheral blood mononuclear cells; experiment: Flow cytometric binding and internalization assay, PBMC; format: cell-based; details: nonmalignant
Experimental: as §1

[10] = system: human primary mammary epithelial cells; experiment: Flow cytometric binding and internalization assay, mammary epithelial cells; format: cell-based; details: nonmalignant
Experimental: as §1

[11] = system: LNCaP lymph node metastatic lesion of human prostate adenocarcinoma; experiment: Flow cytometric binding and internalization assay, LNCaP; format: cell-based; details: malignant
Experimental: as §1

[12] = system: HCC1937 human, triple negative, primary breast carcinoma; experiment: Flow cytometric binding and internalization assay, HCC1937; format: cell-based; details: HCC1937, malignant
Experimental: as §1

[13] = system: WIL-2 B lymphoblastoid cell line transformed with Epstein Barr virus; experiment: Flow cytometric binding and internalization assay, WIL-2; format: cell-based, human; details: WIL-2, transformed cells
Experimental: as §1

[14] = system: HS578T Human, triple negative, highly metastatic breast carcinoma; experiment: Flow cytometric binding and internalization assay, HS578T; format: cell-based; details: malignant
Experimental: as §1

[15] = system: 22Rv1 Human prostate xenografts in mice; experiment: Flow cytometric binding and internalization assay, 22Rv1; format: cell-based; details: 22Rv1, malignant
Experimental: as §1

[16] = system: PrEC human primary prostate epithelial cells; experiment: Flow cytometric binding and internalization assay, PrEC; format: cell-based; details: nonmalignant
Experimental: as §1

[17] = system: K562 human chronic myelogenous leukemia; experiment: Flow cytometric binding and internalization assay, K562; format: cell-based; details: K562, malignant
Experimental: as §1

[18] = Table 7, truncations modified with Alexa 647, PC-3

B1: GGGAGGACGAUGCGGUACUUUCGGGCUUUCGGCAACAUCAGCCCCUCAGGACGCAAUUUCUCCUACUGGGAUAGGUGGAUUAU (nucleic acid)
chain: rGrGrGrArGrGrAfCrGrAfUrGfCrGrGfUrAfCfUfUfUfCrGrGrGfCfUfUfUfCrGrGfCrArAfCrAfUfCrArGfCfCfCfCfUfCrArGrGrAfCrGfCrArAfUfUfUfCfUfCfCfUrAfCfUrGrGrGrAfUrArGrGfUrGrGrAfUfUrAfU
modifications: Alexa 647 label via hybridized DNA oligo, further chemistry not fully specified
notes: tested hybridized to Alexa647 DNA oligo
[1]
  Fold increase: 6.9
[2]; PC-3, in words
  internalization into cells (conclusion from Table 5): mediate internalization into cells
[2]; Table 5, 200 nM Alexa 647-modified clone, 2 hours @ 37° C., PC-3
  Fold Increase (mean fluorescence of clone / unstained cells): 8.3
[2]; Table 5, 200 nM Alexa 647-modified clone, 2 hours @ 37° C., flow cytometry, PC-3
  Mean (mean fluorescence): 665
[2]; [18]
  Fold increase (mean fluorescence intensity / unstained cells): 11.3
  Mean (mean fluorescence intensity): 907
[2]; Table 9, PC3, malignant
  Fold increase: 9.4
[3]
  Fold increase: 3.7
[4]
  Fold increase: 6.1
[5]
  Fold increase: 25.8
[6]
  Fold increase: 31.0
[7]
  Fold increase: 2.1
[8]
  Fold increase: 14.3
[9]
  Fold increase: 2.4
[10]
  Fold increase: 5.7
[11]
  Fold increase: 6.1
[12]
  Fold increase: 11.8
[13]
  Fold increase: 20.6
[14]
  Fold increase: 9.8
[15]
  Fold increase: 14.8
[16]
  Fold increase: 2.6
[17]
  Fold increase: 23.2

Source: patent publication US10059950B2, “Compositions comprising an internalizing nucleic acid molecule, and their methods of use” (B3 BIO, INC., priority 2012, dated 2018)
